Where “and” joins values, the source holds several entries; their conditions need not be identical. Identical values can stand only once.
Key:
[1] = tested on: in vitro model of the BBB (bEnd3 cells); test: Transmigration of radiolabelled peptides across in vitro BBB model; assay type: in vitro ADME; settings: for overpass in the control (no cells): 5 h
Description: Using the same in vitro model of the BBB described above, peptides labelled with technetium and gallium were tested for the ability to cross endothelial barrier. For each peptide, bEnd3 cells cultured on “tissue culture inserts” were incubated with 5 ρCimL^−1-labelled peptide for different incubation times: 15 min, 5 h and 24 h. As a control, the model without cells was used (Control no cells) or (Filters) and compared to models with cells (BBB) or (Cells).
FIGS. 21A-21F show the percent activity of the radioisotope technetium-labelled peptides at the apex and base after 5 hours of incubation with the in vitro model described above, using the BBB-model or no cells (as a control); and values were obtained from two independent assays. […] Moreover, the results indicated promising candidates. Specifically, for each of pepH1 and pepH3, there was an overpass of 50% in the control, compared with only 20% in the presence of a cell barrier. The translocation of pepH2 was not observed in either the control nor in the BBB model.
Results for the incubations of 15 minutes, 5 hours, and 24 hours are shown together in FIGS. 22A-22F. That is, FIGS. 22A-22F show the percent activity of the radioisotope technetium-labelled peptides at the apex and base after 15 minutes, 5 hours, and 24 hours of incubation with the in vitro model described above, using the BBB-model or no cells (as a control); and values were obtained from two independent assays. Differences again were observed, confirming the integrity of the barrier, as well as identifying peptides that crossed the barrier. […] PepR′ thus was excluded from further tests.
(§1) Table 9 summarizes results regarding uptake (internalization) and cellular interaction, as well as transmigration across an in vitro model for BBB, for peptides labelled with technetium and gallium, after 15 minutes, 5 hours, and 24-hours of incubation, based on percent recovery of radiopeptide. The Table lists the peptides, providing each peptide's name, % BBB transmigration, % cellular interaction, and % internalized, each after […], 5 hours, and 24 hours of incubation.

[2] = Stability in blood and urine after injection, HPLC; assay type: in vivo, mice; settings: 5 and 60 minutes following injection
Description: Finally, stability of the peptides was determined. Urine and blood were taken from the animals after death, filtered, and analyzed by RT-HPLC. HPLC analysis was conducted to assess the stability of pepH1 and pepH3 peptides in blood and urine, 5 and 60 minutes post-administration, compared to the respective original preparations.
FIGS. 28A-28D show the profile of pepH1 and pepH3 each in its original preparation, prior to injection into the animals, and then after 5 and 60 minutes following injection in the blood and urine.

[3] = Partition coefficient Kp by intrinsic trp fluorescence; assay type: physicochemical
Description: For the pepH3, the “partition coefficient” or “affinity constant” also was determined, since this peptide intrinsically presents a tryptophan and, thus, successful administrations of the lipid compositions allowed determination of pepH3's affinity constant.
PepH2 and pepH3 are the most hydrophobic peptides (Po/w). In addition, pepH2 interacts with various lipid compositions of membrane models, while pepH3 only interacts with membranes rich in PS (a negatively charged phospholipid).

[4] = Features of peptides: isoelectric point, charge; assay type: physicochemical; settings: original peptide
From the text: Table 7 lists each peptide's name, isoelectric point (PI), charge (number of positive residues), calculated mass (in Da), and ion found; as well as the name, calculated mass, and found ion for the corresponding conjugate; and also retention times in HPLC and the partition coefficient (log Po/w). These values allowed the determination of the hydrophilic nature of peptides, where pepH1 and pepH4 were identified as the most hydrophilic peptides.

[5] = Biodistribution of technetium-labelled peptides; assay type: in vivo, CD1 mice; settings: for excreted: after 60 min; for brain uptake: after 2 min; for brain washout: mouse, in vivo
Description: To evaluate the capacity to cross the BBB in vivo, the selected peptides, pepH1 and pepH3, were analyzed for biodistribution in CD1 mice. The peptides were labelled with technetium at a final concentration of 8.5×10^−5 M and diluted in PBS. CD1 mice were injected (iv injection, tail vein). The mice were sacrificed by cervical dislocation after 5 and 60 minutes of incubation. The tissues of interest were dissected and washed to remove excess blood, weighed, and measured for radioactivity. Technetium radioactivity of the different peptides was measured for different organs.
Initial results are presented in Table 11, where “% I.A. refers to the “% injected activity”, that is, the amount of radioactivity measured in a given organ compared to the total originally injected.
The biodistribution studies were repeated, using higher doses of each peptide, specifically, a one hundred fold increase, as well as using PepH2 as a negative control, and allowing incubation for 2 minutes and 60 minutes. Tissue biodistribution profile in percentage of injected radiopeptide activity per gram of tissue/organ was measured and results are presented in Table 12.

bEnd3 cells = test: Uptake test: cellular interaction (acid wash) and internalization (lysate); assay type: cell-based
Description: In addition to testing models of BBB, an uptake test was performed to determine the internalizing ability of the candidate peptides. BEnd3 cells were cultured in 24 well plates. At each time point, the medium containing the peptide, which had not interacted with the cells, was collected. In the next step, the cells were washed with an acidic buffer that releases peptides more strongly bound to the cell membrane (sample acid wash). Finally, the cells were lysed to release internalized peptides and to quantify the activity inside the cells. Results are showing in FIGS. 23A-23E.
FIGS. 23A-23E show percent activity of the radioisotope technetium-labelled peptides in the media, wash buffer (acid wash) and lysate, after 15 minutes, 5 hours, and 24 hours of incubation with bEnd3 cells; and values were obtained from two independent assays. […] PepM′, as well as showing high transmigration (about 50%), also appeared to become internalized and accumulated within the cells (about 13% of radioactivity in the lysate).
as §1

BAP42 = target: T1, BAP42 (Homo sapiens, UniProt P05067); test: Thioflavin T assay of BAP42 aggregation inhibition; assay type: biochemical; settings: proportions 1:5 and 1:20 sdAb:BAP42
T1 construct: “beta-amyloid peptide 42”, or “beta-amyloid peptide 1-42”
Description: Once purified and verified in recognizing BAP42 oligomers, anti-oligomer antibodies were purified were tested for their ability to inhibit aggregation of the peptide to fibrillar forms. This assay was performed using the thioflavin T (ThT), which, as discussed above, is a probe that recognizes rich “beta-sheet” secondary structures, the structure indeed characteristic of fibrillar BAP42. Accordingly, the greater aggregation inhibition by a candidate anti-oligomer sdAb, the less fibrils formed, and thus the smaller the signal emitted by ThT during the assay. Other selected anti-oligomer sdAbs show similar aggregation inhibition.
Anti-oligomers also were tested for their ability to inhibit aggregation of BAP42. This assay was performed using Thioflavin T (ThT), which, as described above, recognizes beta-sheet rich structures, characteristic of fibrillar form of BAP42, so that the ability of sdAbs to inhibit aggregation can be assessed. Specifically, the more aggregation is inhibited, the smaller the signal emitted by ThT. Two proportions were tested, namely, 1:5 (one molecule for sdAb for every 5 BAP42 molecules) and 1:20 (one molecule for sdAb for every 20 BAP42 molecules).

[6] = 140 μg (pepH1, pepH3) or 80 μg (pepH2)

T1 sequence (P05067 672-713 limits assumed): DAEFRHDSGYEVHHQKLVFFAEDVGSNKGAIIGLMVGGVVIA

| Molecule | BBB transmigration ([1]; 99mTc, 0.25 hours) [%] | overpass in the control (no cells) ([1]; 99mTc) [%] | BBB transmigration ([1]; 99mTc, 5 hours) [%] | BBB transmigration ([1]; 99mTc, 24 hours) [%] | BBB transmigration ([1]; GaCl3, 0.25 hours) [%] | BBB transmigration ([1]; GaCl3, 5 hours) [%] | BBB transmigration ([1]; GaCl3, 24 hours) [%] | stability in blood and urine [2] | Charge (number of positive residues) [4] | PI (isoelectric point) [4] | excreted [5, 6] [%] | brain uptake [5] | brain washout [5] | where the radiopeptide is found in the uptake test (media, acid wash, lysate) (bEnd3 cells; 99mTc) | Cellular interaction (bEnd3 cells; 99mTc, 0.25 hours) [%] | Internalization (bEnd3 cells; 99mTc, 0.25 hours) [%] | Cellular interaction (bEnd3 cells; 99mTc, 5 hours) [%] | Internalization (bEnd3 cells; 99mTc, 5 hours) [%] | Cellular interaction (bEnd3 cells; 99mTc, 24 hours) [%] | Internalization (bEnd3 cells; 99mTc, 24 hours) [%] | further results |
| --- | --- | --- | --- | --- | --- | --- | --- | --- | --- | --- | --- | --- | --- | --- | --- | --- | --- | --- | --- | --- | --- |
| AGILKRW (Dengue virus 2; /note=“#PepH3 (PEP+)”) | 2.70 ± 0.0 | 50 | 9.16 ± 6.5 | 67.23 ± 1.2 | 1.87 ± 0.3 | 26.47 ± 0.4 | 72.63 ± 0.7 | stable in the blood and urine | 2 | 11 | 36 | rapid brain uptake | rapid brain washout | mainly remained in the incubation medium | 1.50 ± 0.1 | 0.15 ± 0.1 | 1.15 ± 0.1 | 0.15 ± 0.1 | 0.60 ± 0.1 | 0.35 ± 0.2 | BBB transmigration ([1]; 99mTc, 5 hours, listed as pepH3): 20%; BBB transmigration ([1]; 99mTc, 24 hours, listed as pepH3): about 70%; affinity constant for POPC:POPS (1:4) relative to other lipid compositions [3]: 5 times; Kp ± SD ([3]; Lipidic membrane POPC:POPS (1:4)): 1,558 and 1,558 ± 216; Kp ± SD ([3]; Lipidic membrane POPC:POPS (3:2)): 455 ± 46; Kp ± SD ([3]; Lipidic membrane POPC:POPS (4:1)): 324 and 342 ± 102; radioactivity in the brain ([5]; 140 μg (pepH1, pepH3) or 80 μg (pepH2), 2 min): 0.31% and 0.37%; Cellular interaction (bEnd3 cells; GaCl3, 0.25 hours): 0.26 ± 0.0%; Internalization (bEnd3 cells; GaCl3, 0.25 hours): 0.03 ± 0.0%; Cellular interaction (bEnd3 cells; GaCl3, 5 hours): 0.73 ± 0.0%; Internalization (bEnd3 cells; GaCl3, 5 hours): 0.12 ± 0.0%; Cellular interaction (bEnd3 cells; GaCl3, 24 hours): 0.60 ± 0.1%; Internalization (bEnd3 cells; GaCl3, 24 hours): 0.30 ± 0.1% |
| VQQLTKRFSL (Dengue virus 2; /note=“#PepH1”) | 3.75 ± 0.5 | 50 | 24.3 ± 0.4 | 73.83 ± 9.4 | 1.13 ± 0.2 | 21.56 ± 0.4 | 71.47 ± 3.7 | stable in the blood and urine | 2 | 11 | 32.7 | rapid brain uptake | rapid brain washout | mainly remained in the incubation medium | 0.63 ± 0.1 | 0.16 ± 0.0 | 0.30 ± 0.0 | 0.10 ± 0.0 | 0.38 ± 0.1 | 0.12 ± 0.0 | BBB transmigration ([1]; 99mTc, 5 hours, listed as pepH1): 20%; BBB transmigration ([1]; 99mTc, 24 hours, listed as pepH1): about 70%; BBB transmigration / translocation (summary of Table 9) ([1]; 24 h, both types of markings): about 70%; Cellular interaction (bEnd3 cells; GaCl3, 0.25 hours): 0.25 ± 0.0%; Internalization (bEnd3 cells; GaCl3, 0.25 hours): 0.00 ± 0.0%; Cellular interaction (bEnd3 cells; GaCl3, 5 hours): 0.80 ± 0.3%; Internalization (bEnd3 cells; GaCl3, 5 hours): 0.10 ± 0.0%; Cellular interaction (bEnd3 cells; GaCl3, 24 hours): 0.62 ± 0.0%; Internalization (bEnd3 cells; GaCl3, 24 hours): 0.16 ± 0.0% |
| FC5: sdAb from the literature binding BBB receptors; positive control for BBB transmigration, SEQ ID NO: 112 (protein, listed as Lama glama, /note=“#FC5”) VHH: ASEVQLQASGGGLVQAGGSLRLSCAASGFKITHYTMGWFRQAPGKEREFVSRITWGGDNTFYSNSVKGRFTISRDNAKNTVYLQMNSLKPEDTADYYCAAGSTSTATPLRVDYWGKGTQVTVSSLE |  |  |  |  |  |  |  |  |  |  |  |  |  |  |  |  |  |  |  |  | inhibition of BAP42 fibrillization (ThT signal) (BAP42): do not inhibit fibrillization |

— patent publication US10654917B2, “Antibody molecules and peptide delivery systems for use in alzheimer's disease and related disorders” (TECHNOPHAGE, INVESTIGAÇĀO E DESENVOLVIMENTO EM …, priority 2015, dated 2020)
